Measured values as given in patent US20260049151A1 (SHENGHE CHINA BIOPHARMACEUTICAL, published 2026).

T1: Human-TNFR2-His (human, UniProt P20333 23-257)
T1 construct: Bought protein; also called human TNFR2 protein; TNFR2 protein; not shown: His tag
T1 sequence (looked up): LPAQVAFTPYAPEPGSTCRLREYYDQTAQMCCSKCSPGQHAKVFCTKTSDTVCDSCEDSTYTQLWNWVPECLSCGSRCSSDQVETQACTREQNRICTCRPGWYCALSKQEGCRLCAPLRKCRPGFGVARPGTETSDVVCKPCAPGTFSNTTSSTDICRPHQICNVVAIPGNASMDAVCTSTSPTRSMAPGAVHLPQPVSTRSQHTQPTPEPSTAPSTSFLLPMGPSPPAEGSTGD

T2: Human TNFR2 mFc (human, UniProt P20333 23-257)
T2 construct: Bought protein; not shown: mFc
T2 sequence (looked up): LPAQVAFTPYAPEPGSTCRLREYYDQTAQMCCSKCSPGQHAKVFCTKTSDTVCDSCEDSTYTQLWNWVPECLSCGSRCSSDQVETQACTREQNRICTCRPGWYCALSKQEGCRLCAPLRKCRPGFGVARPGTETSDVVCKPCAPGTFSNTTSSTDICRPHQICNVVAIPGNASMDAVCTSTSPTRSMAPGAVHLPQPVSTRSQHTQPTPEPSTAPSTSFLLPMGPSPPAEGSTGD

B1: Antibody E1 (bispecific antibody, human IgG1, kappa)
light: DIVMTQSPATLSVSPGERATLSCKASQNVGSNVDWYQQKPGQSPRVLIYKASIRYTGIPARFSGSGSGTEFTLTISILQSEDFAVYFCMQSKSYPITFGQGTKLEIKRTVAAPSVFIFPPSDEQLKSGTASVVCLLNNFYPREAKVQWKVDNALQSGNSQESVTEQDSKDSTYSLSSTLTLSKADYEKHKVYACEVTHQGLSSPVTKSFNRGEC
heavy: not shown
notes: IgG1 subtype; full-length TNFR2 antibody with 4-1BB scFv at the C-terminus of the heavy chains
B2: Antibody H (bispecific antibody, human IgG1, kappa)
light: QVQLQESGPGLVKPSETLSLTCTVSGSSLTSYGVHWVRQPPGKCLEGLGVIWPGGSTNYNSALMSRVTISKDNSKSQVSLKMSSLTAADTAVYYCARVTGTWYFDVWGQGTTVTVSSGGGGSGGGGSGGGGSDIQMTQSPSSLSASLGDRVTISCSASQGISNYLNWYQQKPDGTVKLLIYYTSTLHSGVPSRFSGSGSGTDYTLTISSLQPEDIATYYCQQYSKLPWTFGCGTKLEIKGGGGSGGGGSGGGGSDIVMTQSPATLSVSPGERATLSCKASQNVGSNVDWYQQKPGQSPRVLIYKASIRYTGIPARFSGSGSGTEFTLTISILQSEDFAVYFCMQSKSYPITFGQGTKLEIKRTVAAPSVFIFPPSDEQLKSGTASVVCLLNNFYPREAKVQWKVDNALQSGNSQESVTEQDSKDSTYSLSSTLTLSKADYEKHKVYACEVTHQGLSSPVTKSFNRGEC
heavy: not shown
notes: IgG1 subtype; full-length TNFR2 antibody with 4-1BB scFv at the N-terminus of the light chains
B3: Antibody J1 (bispecific antibody, human IgG1, kappa)
light: DIQMTQSPSSLSASLGDRVTISCSASQGISNYLNWYQQKPDGTVKLLIYYTSTLHSGVPSRFSGSGSGTDYTLTISSLQPEDIATYYCQQYSKLPWTFGGGTKLEIKRTVAAPSVFIFPPSDEQLKSGTASVVCLLNNFYPREAKVQWKVDNALQSGNSQESVTEQDSKDSTYSLSSTLTLSKADYEKHKVYACEVTHQGLSSPVTKSFNRGEC
heavy: not shown
notes: IgG1 subtype; full-length 4-1BB antibody with TNFR2 VHH at the C-terminus of the heavy chains
B4: Antibody M1 (bispecific antibody, human IgG1, kappa)
light: DIQMTQSPSSLSASLGDRVTISCSASQGISNYLNWYQQKPDGTVKLLIYYTSTLHSGVPSRFSGSGSGTDYTLTISSLQPEDIATYYCQQYSKLPWTFGGGTKLEIKRTVAAPSVFIFPPSDEQLKSGTASVVCLLNNFYPREAKVQWKVDNALQSGNSQESVTEQDSKDSTYSLSSTLTLSKADYEKHKVYACEVTHQGLSSPVTKSFNRGEC
heavy: not shown
notes: IgG1 subtype; full-length 4-1BB antibody with TNFR2 VHH at the N-terminus of the heavy chains

Legend:
Human-TNFR2-His = molecular target: T1, Human-TNFR2-His; test: BLI, antibody on AHC sensor, 100 nM TNFR2-His in solution
Procedure: The AHC sensor was soaked in 0.02% PBST (0.02% Tween 20, pH 7.4, 1×PBS) as a buffer for 600 s to remove the sucrose covering the sensor surface. The AHC sensor was equilibrated with 0.02% PBST (0.02% Tween 20, pH 7.4, 1×PBS) as a buffer for 60 s, the antibody in the sample plate was solidified for 300 s, and the secondary equilibration buffer was used for 180 s. 100 nM human-TNFR2-His (manufacturer: SINO, CAT: 10417-H08H, LOT: LC15NO0412) protein was bound to the antibody for 300 s and then dissociated for 600 s. After dissociation, 10 mM glycine (pH 2.0) was used as a regeneration buffer for 30 s. The sensor was regenerated with 10 mM glycine (pH 2.0).

Human 4-1BB Fc = molecular target: T3, Human 4-1BB Fc (human, UniProt Q07011 24-186); test: bridging ELISA: Human 4-1BB Fc coated (0.3 ug/mL), antibody titrated, then Human-TNFR2-His (0.3 ug/mL), HRP anti-His detection (Example 4)
T3 construct: same catalogue and lot number as Human 4-1BB His; not shown: Fc

Human TNFR2 mFc = molecular target: T2, Human TNFR2 mFc; test: bridging ELISA: Human TNFR2 mFc coated (0.3 ug/mL), antibody titrated, then Human 4-1BB His (0.3 ug/mL), HRP anti-His detection (Example 5)

T3 sequence (Q07011 24-186 limits assumed): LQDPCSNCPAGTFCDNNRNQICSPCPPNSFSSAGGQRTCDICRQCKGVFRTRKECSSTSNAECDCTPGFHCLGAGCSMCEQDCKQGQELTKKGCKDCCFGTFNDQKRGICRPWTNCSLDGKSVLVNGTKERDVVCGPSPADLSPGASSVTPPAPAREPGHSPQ

Binder | Kd (Human-TNFR2-His) | koff (Human-TNFR2-His) | kon (Human-TNFR2-His) | EC50 (read off the curve) (Human 4-1BB Fc) | EC50 (read off the curve) (Human TNFR2 mFc)
B1 | 0.207 nM | 8.04e-05 s⁻¹ | 389000 M⁻¹ s⁻¹ | ~0.2 nM | ~0.07 nM
B2 | 0.241 nM | 6.64e-05 s⁻¹ | 276000 M⁻¹ s⁻¹ | ~0.3 nM | ~0.07 nM
B3 | 1.82 nM | 0.000394 s⁻¹ | 217000 M⁻¹ s⁻¹ | ~0.2 nM | ~0.07 nM
B4 | 1.28 nM | 0.000394 s⁻¹ | 308000 M⁻¹ s⁻¹ | ~0.2 nM | ~0.09 nM
